Biological target: T1, SFR1^dN202 mutant protein (mouse, UniProt Q8BP27 203-319)
T1 sequence (looked up): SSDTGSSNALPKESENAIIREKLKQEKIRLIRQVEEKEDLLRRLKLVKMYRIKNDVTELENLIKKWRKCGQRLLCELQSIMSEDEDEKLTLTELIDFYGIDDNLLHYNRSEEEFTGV
Assay: AUC

B1: mouse SWI5 (natural protein, UniProt Q8K3D3 1-89, looked up)
chain: MIDENNDVSEEALSSDIKKLKEKHDMLDKEISQLIAEGYRVIELEKHISLLHEYNDIKDVSQMLLGKLAVTRGVTTKELYPDFDLNLND
stoichiometry N: 1

From article PMC5291256 (Nucleic Acids Research, 2016)
